The nature of the series: soluble on expression in E. coli; label from the status in PepcDB or PDB records.
On to “MSLSQPQPPSRLLVMKFGGTNMQSAHAIRHSASLAGRSVREGVKVVVVVSAMAGVTNGLLHLADAAQSGDIARANDEIAALRTRHFTAAQELGAAPDSETVRELRELHETLRQAVYGVYLLRELTPRSRDLIVAFGERLSAPLMSLALEQSGLRARHLTGGEAGILTDTNFGNARPLPGTYERVGDRLSGFLSAGVTPVIAGFMGETEQGAITTLGRGGTDFSATIVGKALGADEVWAWKDVDGVMSADPRVVGDASNIGVLSYGEVMELAYFGAKVLHPLAVTPLQDSGIPLRVKSAADPDFAGTLVRSQAEEIPGRPVKAVTAIKNVSLLTVTGAGVLGVPEVIASVFTAIARENITLLMVSQSSSMSNVSLAVPSADAARALQALRAGLSSELNVEETNGVAVLAIVGSGMRGQQGVSARLFTALASEDINILMISQGSSELNISVALSGEEVDRATAAVHAAFTLSQPEGHHHHHH”, for which the “soluble on expression in E. coli” value is listed as “not soluble”.
Under “MDAKVYVGGLPSDATSQELEEIFDRFGRIRKVWVARRPPGFAFVEYDDVRDAEDAVRALDGSRICGVRARVELSTGQRRGGGGRGGGFGGRGGGGRDRSPYRGDRGRSRSRSRDRGRDRSRDRSRDRSRDRSRDRSRERSRERERTRSRSRSPQERDRSHSKSRSRSRSRSRSRSASPH” stands “soluble”.
As to “MGSDKIHHHHHHMRIEITPISESALVCRLNAPSELGKQQKLWAFAAALGQHDRIEEVVVGMNNLTVFTRFDTDLATLADELQYVWEHTAVTDHQGKLVEIPVCYGGEYGPDLAEVAAFHQTVISEIVRRHTAQTYTVFMMGFQPGFPYLGGLPEALHTPRRAVPRTSVPAGSVGIGGSQTGVYPFASPGGWQIIGRTELPLFRADLNPPTLLAAGDQVRFVAERIEP”, the “soluble on expression in E. coli” value is reported as “not soluble”.
Under “GSHMHRVINHPYYFPFNGKQAEDYLRSKERGDFVIRQSSRGDDHLAITWKLDKDLFQHVDIQEMEKENPLAMGKVLVVEGQRYHDLDQIIVEYLQNKIRLLNE” stands “soluble”; under “MTPGGQAQIGNVDLVKQLNSAAVYRLIDQYGPISRIQIAEQSQLAPASVTKITRQLIERGLIKEVDQQASTGGRRAISIVTETRNFHAIGVRLGRHDATITLFDLSSKVLAEEHYPLPERTQQTLEHALLNAIAQFIDSYQRKLRELIAISVILPGLVDPDSGKIHYMPHIQVENWGLVEALEERFKVTCFVGHDIRSLALAEHYFGASQDCEDSILVRVHRGTGAGIISNGRIFIGRNGNVGEIGHIQVEPLGERCHCGNFGCLETIAANAAIEQRVLNLLKQGYQSRVPLDDCTIKTICKAANKGDSLASEVIEYVGRHLGKTIAIAINLFNPQKIVIAGEITEADKVLLPAIESCINTQALKAFRTNLPVVRSELDHRSAIGAFALVKRAMLNGILLQHLLEN”, “soluble”; under “MNSFIEGAHQPLLSVWRRAFLFSGALLLTACSHNASPPPFTASGFAGDHGAVRIWRKDTNDEVHLLSVFSPWHSGSTTTSEYRWQGDTLSLIELNIYSKPPEHIRARFDAHGELSFMQREVGGQKQQLSNDQIALYRYRAEQIRQTSDALRLGRVILRQGRWHADHTVTTCEGETLKPDLDSWAISHIERRQNHSSVEVSVAWLEAPEGSQLLLVANSDFCHWQPQAKSF”, “not soluble”.
Under “MTKVQDITRESWILNTFPEWGTWLNEEIEQEVVPADNFAMWWLGNCGIWIKTPGGANVVMDLWSNRGKATKQVKDMVRGHQMANMAGARKLQPNLRAQPMVIDPFMINELDYYLVSHYHSDHIDINTAAAIINNPKLNHVKFVGPYECGEVWKNWGVPKDRIMILKPGDSFEFKDIKITAVESFDRTCLVTLPIQGADAQDGDLAGLAITDDDMARKAVNYIFETPGGTIYHGADSHFSNYFAKHGRDYDIDVVLNNYGENPIGIQDKMTSVDLLRMAENLRAKVVIPVHYDIWSNFMASTDEILELWKMRKERLQYDFHPFIWEVGGKYTYPQDQNRIEYHHPRGFDDCFLEDSNIQFKALL” stands “not soluble”.
Under “MSRCKRCLLPHSAPGAAVDSSGICAFCRSYVPNDKNLSDQLHQQRQLDLEKALADCRGKGPYDVLVCLSGGKDSLYLLYRLKVEYKLNVLAFTTDVNIPDIAWNNIHRTIQKLDIDHLVYRPSAQFYRKLFRYLLMNQEERGAVYTVSYVYAPLFEGDALQVAMEKGIPLVLAGYSPGQPEPERMEFEFSRKLITETDWTPPGLRQSGEFTEEELARFWNPKRFPADTRFPRYLAPFHAWDYDQEAMIRKVHDLELVKRRAHGNPIYSNYPINWLLMYSDLKHFGYNPYAPEFSALIRAGKASRAYWWFMTPIVNFIIRNKLLIGRNTVDQLQQLGLQEDDLKITRPRGAYDPEID” stands “not soluble”.
“MSLSLKLPKADRSIETYRLAASRTFPARLEGPLNRIAFSAVHTVADPFADNDPWLSVAVDWDKTIAFREHVWDLGLGVAEAMDTAQRGMGLDWPTSLELITRSVAAAKRRNALVFSGAGTDHLAVEDARTVDDVIRAYEEQISAVEKVGGRIILMASRALAKLGRNADDYAKVYDRVLSQVREPVIIHWLGDMFDPALTGYWGTKDLDKAMDVAVAVINANAAKVDGVKVSLLDKQREIDMRRRLDKRIRMYTGDDFNYAELIAGDSQGFSHALLGIFDAIAPAASYALSRLAAGDEAGFHDVLGPTVPLSRHIFKAPTRFYKTGVVFMAYLNGHQDHFTMVGGQESARSMLHLAELFRLADQAGLLANPELATRRMTTVLASHGIESEGHHHHHH”: the “soluble on expression in E. coli” value is “soluble”.
Take “MSQVSTEFIPTRIAILTVSNRRGEEDDTSGHYLRDSAQEAGHHVVDKAIVKENRYAIRAQVSAWIASDDVQVVLITGGTGLTEGDQAPEALLPLFDREVEGFGEVFRMLSFEEIGTSTLQSRAVAGVANKTLIFAMPGSTKACRTAWENIIAPQLDARTRPCNFHPHLKK”: the “soluble on expression in E. coli” value was “soluble”.
Under “MAHHHHHHMNSNPTTEMTTTKKEHSQDNMCEIMNKSDKNNNSSLSSRSEKSQSEEIKLCNSGIFNEDKEKQYNDFLKSYNAEYSVEQMKNFLKNGITENGVRILTTDKCSWLYDYYRITKTSDPCVKELTGNTTVDYYYYTTPFSTQIGNINLVMMHSQVNFGDGTCAPADRFFKMNSTTPEMIKEAKLKAKNFQYECMQYI” stands “not soluble”; under “MFPSPTPPLVSPTAVIEEENDDSVREFSRTLKSRLNCAMVKLSKEHEQVALIPPPPTEKIRKGSYSNKFAAKHRRCHSLDESKKFLSSLEDSSAHAAFLKAISSKHAKSNRVDNVNVSPLRWSSHRRTQSTQENSLQEVVAIDTLLKMSSSD”, “not soluble”; under “MGVISAYAVVHERAAIIDPGTAKGAEIILDEIDRSWNVEYICPTHIHIDHGGGAARLAKALDAKIIVHPRGVKHVVNPEKLWEASKAVLGEVAEIYGKPESIDESKVIAVEDEQEFDLGGERLKVFHAPGHAPHMLVYYLTNSKVLFPADAVGMCFGGVVFPLTPPPFDADAALKTLKRLKGLKVDYVAFTHYGVVELEHHHHHH”, “soluble”.
For “MPTPAYMRIEGEKQGLITAGTFTEDSVGNIYQEGHEDEVLVQGFEHQVLLPRDPQSGQPTGQRVHKPVRITKVFDKASPLMYNALTSGEKLPKVEIKWYRTSATGTQEHYFTTVLHDAIIVDITASMPNCQDPSQAHFTHLEDVFMTYRAIDWTHEVAGTSGNDDWRTAMKA”, the “soluble on expression in E. coli” value was “soluble”.
For the sequence “GQGVSRSGALDLGALRSANRTVGNPSDMACVESVLGGLSFSCHGSAVIAITGAHTPVTITSASGLQWQASNYQPIELETGDRVSLGSPKAGLRSYLAIRGGFDVTPVLGSLSTDTLAQLGPEALATGDRLGFTAPVNGTSVSLNEAPAFELPTTANIVTLDVVMGPRTDWFTENAIQRLSSQLWRVTPQSNRVGIRLAGDTPLERSNHQELPSEGTSVGAIQVPASGQPVLFLADHPLTGGYPVIASVASHHLDLAGQIPVNAQIRFNPLGAFEEMQPSTEASFSTADAKNNS”, the “soluble on expression in E. coli” value is on record as “not soluble”.
Under “MGSDKIHHHHHHMTTLDALRVFVEVVRAGSFTAAARRLSISKSLASKRVAALEDELSVNLLNRSTRSLRLTEAGQIYYEHGLRVIEELQSAEAQVQSVTSQPRGQLKVSAQVSFGFMYLAAPTTAFMRRYPDVSVEILLEDQRFEPIDDSVDLAIRMGPLPPSSLVSRPLCKVVYGLYAAPDYLARAGRPLHPRDIADYDTVFYGNYDLGAHWRFSLNGQPLDIEPNSRLVINNLLGVVEAAKSGFGLAYLPTFAARAAVEEGQLIPLLQPYWNEHGSMLVLFRSRKYLPDKTRAYLDFITDWFREHLAL” stands “not soluble”; under “MLQPTPTLTDQVAGQLARAIADGAYAVGAKLPTGRALAQQYGVSAAVIREATERLRAQGLVQSRQGSGCTVVARMPAGGFQVPAGGLDRAHLARVYELRMELEGGAAALAARRRGAADLDRMRQALQALQREPIEPEQGVVHDVGFHVAIATATANPYYLQLLQYLNLQLRQAVETARANTRRQGDPVHAVHEEHLAIYRAIERGEPEAARAAAQHHLLGAAARLQLDMNL”, “not soluble”.
Under “MSTLSQLKPASLWQLFEKICSIPHPSKHEQKISLWIQDWAKELGLAIKEDAVGNLFIKKPATAGMEDRKGIILQAHMDMVPQKNNDTDHDFITDPIKPYVIDSGDWVTAEGTTLGADNGVGLASALAILASDDIPHGPLEVLVTIDEEAGMTGAFGLEAGWLDGDILINTDSEQEGEVYMGCAGGIDGNATFALTLEDVPSNYQAFNLSISGLKGGHSGVDIHTGRANANKLLVRFLLSASIDFDISLTELNGGSLRNAIPREANASFVVAKDKVEALKVALADYLSTISANLGAIETDIDMLLISPEDFEQCWTKATQASILRALNACPNGVIRMSDDIEGIVETSLNLGVIHTRGSKLNAMVLIRSLHDDGRLETQRMVQSVFELAGANVVFSGAYPGWKPNTDSAIMQTVRDTYESIFNKVPAVMVIHAGLECGLFKTAYPHWDMVSIGPTIKFPHSPDEKIEIATVEQYWQLLVAVLANIPKKLEHHHHHH” stands “soluble”.
Under “GDFSWNSSLTYTMNRNKVKRLASGATNPITGEIIDMPELRMAVLGADGYGPRVILREGGTMGDLYVDKGLRTDGNGNIWVDSQTGKVGVQDYAEPKKIGTMNPDFNMGFSNTFSYKGINLGVVLTARVGGLCVSNTQGILDYYGVSKATADARDAGGVWINNGFVDAKSYYQTIGGSTGGLGQYYTYSATNIRLSELNLSYTLPRKWFNNKVGITAGIVGKNLWMIYCKAPFDPEMTPSTTSNFYQGVDYFMQPSTRNIGFNVKFQF” stands “not soluble”; under “MAHHHHHHMMSFTANSGNSPMSQMSPLSQPYTSPQMLPQSSLRPTAPPFTLSGTEDQPTAGAPIRKGGTDPTRYKTTICRNWEMGSCSFKGCTFAHGEEELRMPPRVERYKSSGFDTRRSLTAETPPLYPLNPLPHSGVGRIEHLLNMLYSEVLRERNRFVAHEEANQALEALLKKEQMQREETEVQLEAARWKLEQLRTTVHEASVEINTLLASSPANEELRDRVAMVTQKIASVFSSEDTAVGGGREDEERVMKLLSSLQNCQSTEDM”, “not soluble”; under “MGSDKIHHHHHHMMISLYSAATGMSAQQFKLDTIANNLANVDTTGYKKVRAEFQDLLYQYVKNAGTPTAATSSLPTGLYVGHGVRTAATTRIFTLGNFEQTGNALDLAIAGDGFFQIQLQDGRIAYTRDGSFKMDSEGRIVTSNGLLLVPEITIPENAVSINVSPDGIVSAELQDGTIQELGTITLVRFVNPSGLKSIGDNLYIATPASGDPIEGVPGQDGFGAIKQGFLEKSNVDVVREMVDMITAQRAYEFNSRVIQTADEMLRTATNVKR”, “not soluble”.
Take “MGHHHHHHSHMSLFSGTIQNLENALSRADIKQKVITNNIANIDTPNYKAKKVSFQNLLDQESSRLEAIKTDYRHVDFSDTDSNYSIVASGDTSYQQNGNNVDVDKEMTELAQNQINYQALVERMNGKFNSLKTVLTGGK”: the “soluble on expression in E. coli” value is given as “not soluble”.

Values taken from the DeepSol protein solubility set.
